Experimental findings from PMC9520665, “Chaperonin containing TCP-1 (CCT/TRiC) is a novel therapeutic and diagnostic target for neuroblastoma” (Frontiers in Oncology, 2022) are described below.

Where no end group is shown, it is not given here.

In one experiment the target is T1, CCT2(17-526) (human, UniProt P78371-1 17-526).
T1 construct: CCT2 truncation that retains more of the equatorial domain; A TEV protease site replaced the thrombin site between GST and CCT2
T1 sequence (looked up): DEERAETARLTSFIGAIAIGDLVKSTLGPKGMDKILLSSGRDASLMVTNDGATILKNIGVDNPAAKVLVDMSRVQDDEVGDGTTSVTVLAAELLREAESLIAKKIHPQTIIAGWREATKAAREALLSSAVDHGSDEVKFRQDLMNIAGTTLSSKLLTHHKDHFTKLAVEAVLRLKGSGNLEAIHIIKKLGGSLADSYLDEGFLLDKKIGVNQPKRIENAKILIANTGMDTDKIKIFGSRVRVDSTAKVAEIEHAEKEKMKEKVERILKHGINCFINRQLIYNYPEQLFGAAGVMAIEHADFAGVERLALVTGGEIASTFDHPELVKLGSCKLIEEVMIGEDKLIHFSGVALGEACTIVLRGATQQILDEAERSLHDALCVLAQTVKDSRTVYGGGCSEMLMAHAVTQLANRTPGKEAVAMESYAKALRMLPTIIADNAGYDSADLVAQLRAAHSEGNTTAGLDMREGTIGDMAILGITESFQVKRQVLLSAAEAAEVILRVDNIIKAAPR
The experiment is described as follows: pull-down; 0.1-50 nmol biotin-CT20p (or biotin alone) mixed with 0.1 nmol recombinant CCT2 protein in 20 mM Tris-HCl, 3 h at room temperature, then overnight at 4°C with streptavidin-agarose beads; immunoblot for CCT2. The note with it: both partners purified. For orientation: In western blotting, separated proteins are transferred to a membrane and probed.

In a further experiment the target is T2, full-length HIS-CCT2 (human, UniProt P78371-1 1-535).
T2 construct: CCT2, second subunit of chaperonin containing TCP-1 (CCT/TRiC); The species is stated for CCT2 in general (human), not for the recombinant construct; also called recombinant full-length CCT2 protein; CCTβ; source: E. coli BL21 (DE3) and Rosetta, purified (Ni-NTA, SEC)
T2 sequence (looked up): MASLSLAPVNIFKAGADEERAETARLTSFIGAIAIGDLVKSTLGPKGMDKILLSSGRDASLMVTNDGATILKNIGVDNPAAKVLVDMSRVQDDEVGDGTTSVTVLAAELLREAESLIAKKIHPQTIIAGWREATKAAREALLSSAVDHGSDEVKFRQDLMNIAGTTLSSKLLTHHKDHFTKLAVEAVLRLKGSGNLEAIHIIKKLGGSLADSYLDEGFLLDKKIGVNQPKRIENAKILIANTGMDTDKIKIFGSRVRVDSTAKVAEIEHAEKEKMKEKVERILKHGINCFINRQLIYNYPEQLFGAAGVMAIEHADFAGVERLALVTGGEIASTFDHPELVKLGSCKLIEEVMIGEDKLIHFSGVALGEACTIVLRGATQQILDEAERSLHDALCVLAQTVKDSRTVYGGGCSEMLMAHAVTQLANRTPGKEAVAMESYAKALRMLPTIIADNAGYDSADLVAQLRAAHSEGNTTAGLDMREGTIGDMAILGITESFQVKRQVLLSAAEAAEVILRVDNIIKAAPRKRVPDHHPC
The experiment is described as above. The note with it: both partners purified.

B1: biotinylated CT20p (peptide)
peptide: VTIFVAGVLTASLTIWKKMG
modifications: also: biotin, position not given here
notes: 20 amino acid amphipathic peptide derived from the C-terminus of the apoptotic protein Bax; also called biotin-CT20p; source: synthetic peptide, commercially synthesized (BioPeptides Inc)
For the molecule B1, the binding result in the experiment with CCT2(17-526) and in the experiment with full-length HIS-CCT2 was “binds” each time.
